Laboratory results reported in patent publication US20020082410, “Insulin promoter factor, and uses related thereto” (Curis, Inc., published 2002).

Target: Ipf1 (IPF1, Pdx1) (Mus musculus, UniProt P52946 SEQ:1-284)
Assay: EMSA; same mobility as IPF1 from betaTC1 nuclear extract; competition with wild-type and mutant P1 sites showed same specificity as endogenous IPF1
Settings: tags: none; rabbit reticulocyte lysate from full-length cDNA in pGEM3
Method: RNA prepared from the IPF1 cDNA template was translated in vitro and the DNA binding specificity of the in vitro translation product was determined using an electrophoretic mobility shift assay (EMSA) and the insulin promoter PI site as a probe (Ohisson et al., (1991) Mol Endocrin 5:897-904; see also Materials and Methods below). The in vitro translation product bound to the P1 element and migrated to the same relative position in the gel as IPF1 from the βTC1 nuclear extract.

Sequence of Ipf1 (IPF1, Pdx1) (P52946 other isoform, or with tags, fused parts or gaps): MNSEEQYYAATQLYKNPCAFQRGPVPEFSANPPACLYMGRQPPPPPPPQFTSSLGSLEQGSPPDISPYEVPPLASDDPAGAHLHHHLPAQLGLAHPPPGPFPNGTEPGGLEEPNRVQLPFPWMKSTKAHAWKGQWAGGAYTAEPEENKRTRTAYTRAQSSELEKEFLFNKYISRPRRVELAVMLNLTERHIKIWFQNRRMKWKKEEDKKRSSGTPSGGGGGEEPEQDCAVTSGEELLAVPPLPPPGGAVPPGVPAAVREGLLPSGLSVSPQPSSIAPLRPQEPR

B1: P1 wild-type insulin promoter element (dsDNA)
DNA 1: GCCCTTAATGGGCCAAACGGCA
DNA 2: TGCCGTTTGGCCCATTAAGGGC
- binding result: binds
